Where two headings read alike, the source gives them in different places.
T1: CceR-6xHis (Rhodobacter sphaeroides 2.4.1, UniProt Q3J5X3 1-345)
T1 sequence: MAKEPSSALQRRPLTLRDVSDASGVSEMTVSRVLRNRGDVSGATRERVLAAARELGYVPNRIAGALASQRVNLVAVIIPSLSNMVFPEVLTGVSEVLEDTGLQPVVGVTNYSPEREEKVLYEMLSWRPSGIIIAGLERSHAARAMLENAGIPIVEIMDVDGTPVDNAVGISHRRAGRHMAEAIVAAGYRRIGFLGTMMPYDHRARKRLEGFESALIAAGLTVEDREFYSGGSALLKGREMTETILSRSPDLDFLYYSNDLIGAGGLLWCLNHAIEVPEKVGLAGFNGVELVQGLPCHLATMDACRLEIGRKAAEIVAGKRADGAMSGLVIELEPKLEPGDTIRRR


How the values were obtained:
CceR-6xHis [1] = biological target: T1, CceR-6xHis; experiment: EMSA
CceR-6xHis [2] = biological target: T1, CceR-6xHis; experiment: EMSA; remark: listed apart in the source

| Binder | binding result (CceR-6xHis [1]) | binding result (CceR-6xHis [2]) |
| --- | --- | --- |
| zwf promoter fragment (dsDNA) DNA 1: CGGGCGTCTTTCCACATTTACCCCGGCGGGGGGCGCGCTAGACTCGGGCCACGGCAGCCGCTAGAACGGCCGTTAGCGCTAACAGGCGAGGCAGC DNA 2: GCTGCCTCGCCTGTTAGCGCTAACGGCCGTTCTAGCGGCTGCCGTGGCCCGAGTCTAGCGCGCCCCCCGCCGGGGTAAATGTGGAAAGACGCCCG | binds | – |
| bchF promoter fragment (dsDNA) DNA 1: TCATCCAAGGAGGAACGCATGTCAAAGAAAATTGACACCTCAGGCAGCGGAGGCAGCCCATCCCCCGCTGAACTCACACTTAATCCTTGGATTTACGACAGAGTGTCGCAGCTTC DNA 2: GAAGCTGCGACACTCTGTCGTAAATCCAAGGATTAAGTGTGAGTTCAGCGGGGGATGGGCTGCCTCCGCTGCCTGAGGTGTCAATTTTCTTTGACATGCGTTCCTCCTTGGATGA | – | no binding |
